According to US6797695:

Biological target: T1, Recombinant FGF-20 (rat, UniProt Q9EST9 1-212)
T1 construct: Immobilised on a CM5 sensor chip in the assay; also called recombinant rat FGF-20; rFGF-20
Experiment: SPR (BIACORE 2000), FGF-20 immobilised on CM5, receptor extracellular domain as analyte

T1 sequence (Q9EST9 other isoform, or with tags, fused parts or gaps limits assumed): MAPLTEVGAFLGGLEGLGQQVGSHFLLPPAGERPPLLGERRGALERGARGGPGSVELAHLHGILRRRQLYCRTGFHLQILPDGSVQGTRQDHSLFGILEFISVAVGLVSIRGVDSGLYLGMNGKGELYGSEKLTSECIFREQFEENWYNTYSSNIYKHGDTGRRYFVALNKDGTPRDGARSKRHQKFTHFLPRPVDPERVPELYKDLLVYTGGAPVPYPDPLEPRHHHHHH

B1: recombinant extracellular domain of FGFR-3c (receptor)
chain: ESLGTEQRVVGRAAEVPGPEPGQQEQLVFGSGDAVELSCPPPGGGPMGPTVWVKDGTGLVPSERVLVGPQRLQVLNASHEDSGAYSCRQRLTQRVLCHFSVRVTDAPSSGDDEDGEDEAEDTGVDTGAPYWTRPERMDKKLLAVPAANTVRFRCPAAGNPTPSISWLKNGREFRGEHRIGGIKLRHQQWSLVMESVVPSDRGNYTCVVENKFGSIRQTYTLDVLERSPHRPILQAGLPANQTAVLGSDVEFHCKVYSDAQPHIQWLKHVEVNGSKVGPDGTPYVTVLKTAGANTTDKELEVLSLHNVTFEDAGEYTCLAGNSIGFSHHSAWLVVLPAEEELVEADEAGSVYAG
With B1 the Kd was 217 nM, the koff was 0.0247 s⁻¹ and the kon was 115000 M⁻¹ s⁻¹.
